Assay [1] deals with T1, recombinant fibronectin domain ED-B (His)6 (human, UniProt P02751 1266-1356).
T1 construct: domain: ED-B; Biotinylated ED-B was used only in pannings; also called rekombinantes ED-B; human ED-B
Briefly: SPR (BIAcore), about 100 RU ED-B on chip, Fab in flow.

In assay [2] the target is T1, recombinant fibronectin domain ED-B …. Briefly: SPR (BIAcore), ED-B on chip, Fab in flow.
Assay [3] shares this target. Kind of assay: SPR (BIAcore), ED-B on chip, Fab monomer in flow.

The text below walks through data of WO2007054120A1 (dated 2007).

B1: MOR03246 (Fab, V domains shown)
VH: QVQLVQSGAEVKKPGASVKVSCKASGYTFTGFYINWVRQAPGQGLEWMGWINPYSGNTRYAQKFQGRVTMTRDTSISTAYMELSSLRSEDTAVYYCARSPVYYKYDYWGQGTLVTVSS
VL: DIVLTQPPSVSGAPGQRVTISCSGSSSNIGSNTVRWYQQLPGTAPKLLIYSNNKRPSGVPDRFSGSKSGTSASLAITGLQSEDEADYYCQSWDPRSFTVFGGGTKLTVL
Take B1: the Kd in assay [1] is 0.6 nM.

B2: MOR03243 (Fab, V domains shown)
VH: QVQLQESGPGLVKPGETLSLTCTVSGGSISSYYWSWIRQAPGKGLEWIGEIHRGGYTQYNPSLKSRVTISVDTSKNQFSLKLSSVTAADTAVYYCARFFDVWGQGTLVTVSS
VL: DIVLTQPPSVSGAPGQRVTISCSGSSSNIGSNTVRWYQQLPGTAPKLLIYSNNKRPSGVPDRFSGSKSGTSASLAITGLQSEDEADYYCQAWTRAHRYPVFGGGTKLTVLG
Take B2: the dissociation constant (Kd) in assay [1] is roughly 0.7 nM.

B3: MOR03245 (Fab, V domains shown)
VH: QVQLQESGPGLVKPGETLSLTCTVSGGSISSYYWSWIRQAPGKGLEWIGVIHKWGFTNYNPSLKSRVTISVDTSKNQFSLKLSSVTAADTAVYYCARFFDVWGQGTLVTVSS
VL: DIVLTQPPSVSGAPGQRVTISCSGSSSNIGSNTVRWYQQLPGTAPKLLIYSNNKRPSGVPDRFSGSKSGTSASLAITGLQSEDEADYYCWTGMSYHFVFGGGTKLTVLG
Consider B3, for which the Kd in assay [1] was roughly 0.7 nM.

B4: MOR03255 (Fab, V domains shown)
VH: QVQLVESGGGLVQPGGSLRLSCAASGFTFSSYGMHWVRQAPGKGLEWVSVISNRSSYIYYADSVKGRFTISRDNSKNTLYLQMNSLRAEDTAVYYCARNKVGFDVWGQGTLVTVSS
VL: DIALTQPASVSGSPGQSITISCTGTSSDGGGYNTVSWYQQHPGKAPKLMIYYVHKRPSGVSNRFSGSKSGNTASLTISGLQAEDEADYYCQSWDLSVHQVVFGGGTKLTVLG
For the molecule B4, the Kd in assay [1] was 0.03 nM.

B5: MOR03062 (Fab, V domains shown)
VH: QVQLVESGGGLVQPGGSLRLSCAASGFTFSSYGMHWVRQAPGKGLEWVSVISSSGSYIYYADSVKGRFTISRDNSKNTLYLQMNSLRAEDTAVYYCARNKVGFDVWGQGTLVTVSS
VL: DIALTQPASVSGSPGQSITISCTGTSSDGGGYNTVSWYQQHPGKAPKLMIYYVHKRPSGVSNRFSGSKSGNTASLTISGLQAEDEADYYCQSWDLSVHQVVFGGGTKLTVLG
For B5, the “fold affinity enhancement against MOR02715” value in assay [2] was 15 fold. In assay [3], the Kd was found to be 2.4 nM.

B6: MOR03258 (Fab, V domains shown)
VH: QVQLVESGGGLVQPGGSLRLSCAASGFTFSSYGMHWVRQAPGKGLEWVSVISNQSNYIYYADSVKGRFTISRDNSKNTLYLQMNSLRAEDTAVYYCARNKVGFDVWGQGTLVTVSS
VL: DIALTQPASVSGSPGQSITISCTGTSSDGGGYNTVSWYQQHPGKAPKLMIYYVHKRPSGVSNRFSGSKSGNTASLTISGLQAEDEADYYCQSWDLLAPSVVFGGGTKLTVL
B6: the Kd in assay [1] worked out at 0.04 nM.

B7: MOR03075 (Fab, V domains shown)
VH: QVQLQESGPGLVKPGETLSLTCTVSGGSISSYYWSWIRQAPGKGLEWIGIGHWGSTQYNPSLKGRVTISVDTSKNQFSLKLSSVTAEDTAVYYCARFFDVWGQGTLVTVSS
VL: DIVLTQPPSVSGAPGQRVTISCSGSSSNIGSNTVRWYQQLPGTAPKLLIYSNNKRPSGVPDRFSGSKSGTSASLAITGLQSEDEADYYCQSWDPRSFTVFGGGTKLTVLG
In the case of B7, the Kd in assay [2] worked out at 2.4 nM.
